To fix the notation:
B1: Tim17 with an affinity tag, overexpressed (natural protein)
chain: MSADHSRDPCPIVILNDFGGAFAMGAIGGVVWHGIKGFRNSPLGERGSGAMSAIKARAPVLGGNFGVWGGLFSTFDCAVKAVRKREDPWNAIIAGFFTGGALAVRGGWRHTRNSSITCACLLGVIEGVGLMFQRYAAWQAKPMAPPLPEAPSSQPLQA
modifications: disulfide bond between Cys10 and Cys77
B2: Tim23, overexpressed (natural protein)
chain: MSWLFGDKTPTDDANAAVGGQDTTKPKELSLKQSLGFEPNINNIISGPGGMHVDTARLHPLAGLDKGVEYLDLEEEQLSSLEGSQGLIPSRGWTDDLCYGTGAVYLLGLGIGGFSGMMQGLQNIPPNSPGKLQLNTVLNHITKRGPFLGNNAGILALSYNIINSTIDALRGKHDTAGSIGAGALTGALFKSSKGLKPMGYSSAMVAAACAVWCSVKKRLLEK

The target of test [1] is B2. The test is described as follows: cryo-EM structure.
The target of test [2] is Tim17 with an affinity tag, overexpressed (S. cerevisiae) (UniProt P39515). The test is described as follows: cryo-EM structure.
Test [3] deals with B2. The test is described as follows: pull-down.
For test [4], the target named is B1. The test is described as follows: cryo-EM structure.

Consider 3 molecules from doi:10.1101/2021.10.10.463828 (bioRxiv, 2021).

The term stoichiometry N denotes the number of molecules, sites or subunits per partner or assembly.

For Tim44, overexpressed (natural protein), the stoichiometry N was found to be 1 in the test with Tim23, overexpressed [1] and 1 in test [2].

As to B1, in the test with Tim23, overexpressed [3], the binding result is recorded as “binds”.

Consider B2, for which the “stoichiometry N” value in test [4] is 1.
